Drawing on patent publication US20020193308A1, this text covers Ka for 1 molecule.

The assay deals with polyclonal antibodies (lot RF29), raised in rabbits against natural isolate of UK114. The assay can be described thus: competition ELISA: soluble antigen titrated against rabbit antiserum (1:10,000) on plates coated with natural UK114; apparent Ka is the reciprocal of the antigen concentration at the A50 point. For orientation: ELISA stands for enzyme-linked immunosorbent assay.

B1: recombinant UK114 (E.coli-derived, SEQ ID NO:1) (protein)
chain: SSLVRRIISTAKAPAAIGPYSQAVLVDRTIYISGQLGMDPASGQLVPGGVVEEAKQALTNIGEILKAAGCDFTNVVKATVLLADINDFSAVNDVYKQYFQSSFPARAAYQVAALPKGGRVEIEAIAVQGPLTTASV
In the case of B1, the Ka came to 4.9e+08 M⁻¹.
